According to the supplement of paper PMC7877785:
± gives the uncertainty stated by the source.

Assay: self-splicing fitness, log relative to wild type (ln ratio); higher = more splicing; Tetrahymena group I intron in knt gene, E. coli kanamycin selection, DiMSum; sequences stand for … in CUCUCU…GGAGGGAAAAGUUAUCAGGCAUGCACCUGGUAGCUAGUCUUUAAACCAAUAGAUUGCAUCGGUUUAAAAGGCAAGACCGUCAAAUUGCGGGAAAGGGGUCAACAGCCGUUCAGUACCAAGUCUCAGGGGAAACUUUGAGAUGGCCUUGCAAAGGGUAUGGUAAUAAGCUGACGGACAUGGUCCUAACCACGCAGCCAAGUCCUAAGUCAACAGAUCUUCUGUUGAUAUGGAUGCAGUUCACAGACUAAAUGUCGGUCGGGGAAGAUGUAUUCUUCUCAUAAGAUAUAGUCGGACCUCUCCUUAAUGGGAGCUAGCGGAUGAAGUGAUGCAACACUGGAGCCGCUGGGAACUAAUUUGUAUGCGAAAGUAUAUUGAUUAGUUUUGGAGUACUCGUGGUCG
Procedure, shortened: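 Pooled colonies went to amplicon sequencing on an Illumina HiSeq 2500 after six replicate transformations. The plates were LB agar with 100 μg/mL carbenicillin, 50 μM IPTG and 0.2% rhamnose, with or without 25 μg/mL kanamycin, incubated overnight at 37°C or 30°C. The E. coli BL21(DE3) library had all eight P1ex-region intron nucleotides randomised, the intron placed in the knt kanamycin-resistance gene on pET-22b(+). DiMSum fitness is the error-weighted combination of replicate fold changes, kanamycin against none, normalised to wild type.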

| Sequence | self-splicing fitness (ln) (30 °C) | self-splicing fitness (ln) (37 °C) |
| --- | --- | --- |
| CGAUAGCAAUAUUACGUACU | -1.12 ± 0.081 | -0.791 ± 0.12 |
| CGAUAGCAAUAUUACGUAGU | -3.93 ± 0.18 | -1.06 ± 0.1 |
| CGAUAGCAAUAUUACGUAUC | -3.4 ± 0.3 | – |
| CGAUAGCAAUAUUACGUCGG | -1.16 ± 0.11 | -0.171 ± 0.11 |
| CGAUAGCAAUAUUACGUGAU | -3.02 ± 0.1 | -0.808 ± 0.088 |
| CGAUAGCAAUAUUACGUGGG | -2.61 ± 0.17 | -0.763 ± 0.16 |
| CGAUAGCAAUAUUACGUUGU | -3.45 ± 0.15 | -2.61 ± 0.21 |
| CGAUAGCAAUAUUACGUUUC | – | -2.12 ± 0.15 |
| CGCAAGCAAUAUUACGAAAG | -0.888 ± 0.071 | -1.12 ± 0.093 |
| CGCAAGCAAUAUUACGAACG | -1.23 ± 0.1 | -1.03 ± 0.14 |
| CGCAAGCAAUAUUACGAAGU | -4.42 ± 0.36 | -0.741 ± 0.15 |
| CGCAAGCAAUAUUACGACAU | -2.999 ± 0.017 | -1.77 ± 0.034 |
| CGCAAGCAAUAUUACGAGAG | -2.52 ± 0.1 | -2.24 ± 0.15 |
| CGCAAGCAAUAUUACGAGCA | -0.102 ± 0.1 | 0.368 ± 0.14 |
| CGCAAGCAAUAUUACGAGUC | -3.43 ± 0.13 | -2.97 ± 0.19 |
| CGCAAGCAAUAUUACGAUCU | -1.61 ± 0.073 | -0.39 ± 0.085 |
| CGCAAGCAAUAUUACGCAAC | -3.19 ± 0.36 | -3.11 ± 0.37 |
| CGCAAGCAAUAUUACGCACC | -1.54 ± 0.29 | -0.0713 ± 0.4 |
| CGCAAGCAAUAUUACGCAGU | -3.23 ± 0.17 | -2.62 ± 0.21 |
| CGCAAGCAAUAUUACGCCCG | -1.22 ± 0.21 | -1.93 ± 0.31 |
| CGCAAGCAAUAUUACGCGAA | -3.58 ± 0.16 | -1.87 ± 0.13 |
| CGCAAGCAAUAUUACGCUAC | – | -2.82 ± 0.48 |
| CGCAAGCAAUAUUACGGAAU | -3.63 ± 0.15 | -2.77 ± 0.18 |
| CGCAAGCAAUAUUACGGACA | -0.905 ± 0.14 | -0.195 ± 0.14 |

| Sequence | self-splicing fitness (ln) (30 °C) | self-splicing fitness (ln) (37 °C) |
| --- | --- | --- |
| CGCAAGCAAUAUUACGGCGG | -0.329 ± 0.073 | 0.31 ± 0.09 |
| CGCAAGCAAUAUUACGUAAC | -3.76 ± 0.23 | -2.31 ± 0.19 |
| CGCAAGCAAUAUUACGUAUC | -3.14 ± 0.13 | -2.33 ± 0.19 |
| CGCAAGCAAUAUUACGUCAC | -3.45 ± 0.21 | -2.12 ± 0.23 |
| CGCAAGCAAUAUUACGUGAC | -2.74 ± 0.2 | -2.5 ± 0.3 |
| CGCAAGCAAUAUUACGUUCA | -1.33 ± 0.1 | -0.636 ± 0.098 |
| CGCCAGCAAUAUUACGAACA | -3.55 ± 0.26 | -0.716 ± 0.11 |
| CGCCAGCAAUAUUACGAUUA | -2.37 ± 0.15 | -2.68 ± 0.21 |
| CGCCAGCAAUAUUACGCAAC | -3.25 ± 0.27 | -3.44 ± 0.42 |
| CGCCAGCAAUAUUACGCACG | -1.66 ± 0.11 | -1.47 ± 0.17 |
| CGCCAGCAAUAUUACGCAGC | -2.96 ± 0.34 | -2.4 ± 0.38 |
| CGCCAGCAAUAUUACGCAGG | -2.06 ± 0.2 | -2.56 ± 0.26 |
| CGCCAGCAAUAUUACGCCCU | -1.93 ± 0.14 | -0.637 ± 0.13 |
| CGCCAGCAAUAUUACGCGUC | -3.41 ± 0.17 | -2.33 ± 0.15 |
| CGCCAGCAAUAUUACGGAGU | -3.79 ± 0.12 | -2.7 ± 0.13 |
| CGCCAGCAAUAUUACGGCCA | -0.294 ± 0.11 | 0.0865 ± 0.13 |
| CGCCAGCAAUAUUACGGGCU | -3.79 ± 0.18 | -2.04 ± 0.12 |
| CGCCAGCAAUAUUACGUACU | -2.58 ± 0.16 | -2.02 ± 0.2 |
| CGCCAGCAAUAUUACGUGUU | -3.08 ± 0.14 | -3.21 ± 0.18 |
| CGCGAGCAAUAUUACGAAGA | – | -0.985 ± 0.39 |
| CGCGAGCAAUAUUACGAGCU | -3.72 ± 0.37 | -2.22 ± 0.27 |
| CGCGAGCAAUAUUACGAGUG | -3.46 ± 0.31 | -1.78 ± 0.2 |
| CGCGAGCAAUAUUACGAGUU | -3.3 ± 0.2 | -3.19 ± 0.26 |
| CGCGAGCAAUAUUACGAUCA | -2.91 ± 0.19 | -2.04 ± 0.16 |
